Results on three substances are retold here after PMC6149855, “Improving the Catalytic Property of the Glycoside Hydrolase LXYL-P1–2 by Directed Evolution” (Molecules : A Journal of Synthetic Chemistry and Natural …, 2017).

This series relates to [H][C@]12[C@H](OC(=O)c3ccccc3)[C@]3(O)C[C@H](OC(=O)[C@H](O)[C@@H](NC(=O)c4ccccc4)c4ccccc4)C(C)=C([C@@H](O)C(=O)[C@]1(C)[C@@H](O[C@@H]1OC[C@@H](O)[C@H](O)[C@H]1O)C[C@@]1([H])OC[C@@]21OC(C)=O)C3(C)C. Nature of the series: HPLC of 10-deacetyltaxol formation, nonlinear Michaelis–Menten fit. The format is biochemical, Lentinula edodes. Particulars: XDT 0.039–5.0 mM; other conditions as described previously. The source says: HPLC of 10-deacetyltaxol formation, nonlinear Michaelis–Menten fit on LXYL-P1–2
Consider LXYL-P1–2 (Lentinula edodes), for which the Km was 0.51 (±0.01) mmol L^−1, the Vmax was determined as 8.16 µM/min, the kcat stood at 4.89 ± 0.1 s⁻¹ and the kcat/Km stood at 9670 ± 100 M⁻¹ s⁻¹.

As for LXYL-P1–2 (Lentinula edodes; S91D), the Km is reported as 0.17 (±0.01) mmol L^−1, the maximum rate (Vmax) is 3.15 µM/min, the kcat is 1.89 ± 0.04 s⁻¹ and the kcat/Km worked out at 11300 ± 390 M⁻¹ s⁻¹.

For LXYL-P1–2 (Lentinula edodes; T368E), the Km is 0.16 (±0.01) mmol L^−1, the Vmax was 3.84 µM/min, the kcat was 2.3 ± 0.03 s⁻¹ and the kcat/Km was 14200 ± 810 M⁻¹ s⁻¹.
